Laboratory results from the supplement of paper PMC9170038.

System: MS2 coat protein
Assay: apparent KD of MS2 coat protein; higher = weaker reporter binding
Settings: Eterna round: R107; input ligand: arginine 13.2 mM
Method: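 RNA-MaP round R107: designed RNA switches with theophylline, tryptophan, arginine or FMN aptamers are transcribed on-chip within common flanks. They are titrated with SNAP-549-labelled MS2 coat protein in RNA-MaP buffer (100 mM Tris pH 7.5, 80 mM KCl, 4 mM MgCl2), without ligand or with the indicated ligand. Median apparent KD per design.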

First: CUAUUUAUAGCGGCCGCCACUUACUCAUGAGGUAACAACAUGAGGAUCACCCAUGUUUGAGGAUCAAGGACCGGGCUAUGGAUAG [AstrosSSTryB#12]
Second: CUGCCAUGCAGAGAUACCAGUGAGCUCAAAACAUGAGGAUCACCCAUGUAAAUUGCCGAUCACCCUUGGCAGCUCUGCAUGGCAG [}=%#^]
The “apparent KD of MS2 coat protein” value of the first is 1.8-fold higher: 24.5 nM for the first, 13.7 nM for the second.

Same assay, conditions: Eterna round: R107; input ligand: none

Going from “UAAUAAAUAAAUCCAAGGUGAAGGUCAGAUACCAGCCAGAUAACUGGCCCUUGGCAGCUGAAUAAACUUGAGGAUCACCCAGGUA [TheoAS 27 #OpenEnded #MS2Late #AlternativeMS2]” to “AGGACAUGAGGAUCACCCAUGUACACUGAAGGAGCGUCGAGAACGACAGGUAGGUCGCAGGCUAAGGAAGGUGAUGCUCAAGAAG [Exclusion Arginine A GF6]”, the “apparent KD of MS2 coat protein” value falls from 63.1 nM to 26.2 nM (2.4-fold).

“UGUAUGGACUGAAGGAGCGGGUUGAUAAUCUGAGGAUCACCCAGGUAAAAGGCGAAAGCCACCCAGGUAGGUCGCAGUCCAUACU” and “UAAUAAAUAAAUCCAAGGUGUAGGUCAGAUACCAGCCAGAUAACUGGCCCUUGGCAGCUGAAUAAACCUGAGGAACACCCAGGUA [TheoAS 24 #OpenEnded #MS2Late #AlternativeMS2]” are within 1.5-fold of each other in “apparent KD of MS2 coat protein” value: 34 nM for the first, 31.6 nM for the second.

“GGAUAGGACACGGCCGCCACUAGCUAGGAUACUAGCAACAUUUGGGUACAUGAGGAUCACCCAUGUAGGACCGGGUGUCCUAUCG” and “GGAUAGGACACGGCCGCCACUAGCUAGGAUACUAGCAACAUUUCCUCACAAGAGGAUCACCCUUGUAGGACCGGGUGUCCUAUCG” are within 1.5-fold of each other in “apparent KD of MS2 coat protein” value: 63.7 nM for the first, 93.7 nM for the second.

Going from “AUACAUGAGGAUCACCCAUGUUAUAGUGAAGGAGCGACAUUUAUGUCAGGUAGGUCGCACUGUUGUUUAAUGAUUCUUGGAUCUU [#20 Exclusion - Arginine A]” to “UCGCUCUGGGUGAAUCCCAGAGAUGUGGAAGGAGCGGAGGAAACUCCAGGUAGGUCGCCAUCGAACAUGAGGAUCACCCAUGUAC [Same State - Arginine A (Freestyle 28)]”, the “apparent KD of MS2 coat protein” value rises from 13.3 nM to 56.8 nM (4.3-fold).

“AAUAAUAAGGCGGCCGCCACUAAACAUGAGGAUCACCCAUGUCUCGAGCGCUUGCGUUUGGGAAGUAGGACCGGGCCAAUAAUAA [Exclusion - Tryptophan B (Freestyle 5)]” and “GCUGCCAUACGAAGGAGCGCUGGUGUAAUGAGGCGAACAUGAGGAUCACCCAUGUGGCAGAAGCAGGUAGGUCGCGUAUGGCAGC [EAB #15]” are within 1.5-fold of each other in “apparent KD of MS2 coat protein” value: 14.5 nM for the first, 14.2 nM for the second.

Going from “CGGACAUGAGGAUCACCCAUGUACACUGAAGGAGCGUCGAGAACGACAGGUAGGUCGCAGGUUGAGGAUGGUGAUGCUCAGGUAG [Exclusion Arginine A GF 3]” to “GUAGGUCUCAUGGGUGGACCUACACUGGAAGGAGCGAGCGAAAGCUCAGGUAGGUCGCCAGAAACAUGAGGAUCACCCAUGUAAU [(A)''-(M)'-(A)'-(Arg1)-(Arg2)-(M1)-(M2)_Design1]”, the “apparent KD of MS2 coat protein” value rises from 39.2 nM to 360 nM (9.2-fold).

First: UUCAGCUAGUCGGCCGCCACUACAUGAGGAUCACCCAUGUAGGUCCACACUGCUUCGGCAGUGAGUAGGACCGGGACUAGCUGAG
Second: UCGAAUGCGGCGGCCGCCACUCGCGGAUAACGAUAGCUUAACAUGAGGAUCACCCAUGUGUCAUGGAGGACCGGGCCCAUACGGU [kmkmullin]
The “apparent KD of MS2 coat protein” value of the first is 1.8-fold lower: 9.66 nM for the first, 17 nM for the second.

First: AAUUACAUGAGGAUCACCCAUGUGGCACAACGAGGACCGGUACGGCCGCCACUCGGUGCUGUACCACAAAACAUGCACGGGAAAG [theeternabot_sameState_MS2_Trp_A_6]
Second: AUGCAUAGCCGAAGGAGCGCAGUAGGAUGACAUGAGGAUCACCCAUGUGUGUGAUGUGGAUUGCAGGUAGGUCGCGGAGUGGUAU [Exclusion - Arginine B (Freestyle 5)]
The “apparent KD of MS2 coat protein” value of the first is 3.8-fold lower: 31.6 nM for the first, 119 nM for the second.

Same assay, conditions: Eterna round: R107; input ligand: theophylline 20 uM

“ACGCUGCAUAGGAAAACUAUGUAGCGAAAUCGAGGACCGGUACGGCCGCCACUCGUCCUCAACAUGAGGAUCACCCAUGUAAUAA [Mat - Exclusion - Trytophan A - D8]” and “AGACUGUAAAGUCUACCGGUCAACAAUAAUCGAGGACCGGUACGGCCGCCACUCGAUGUGAUAUACACAUGAGGAUCACCCAUGU [Tryptophan A 16]” are within 1.5-fold of each other in “apparent KD of MS2 coat protein” value: 23.7 nM for the first, 22.6 nM for the second.

Going from “UAAUAAAUAAAUCCAAGGUGAAGGUCAGAUACCAGCCAGAUAACUGGCCCUUGGCAGCUGAAUAAACUUGAGGAUCACCCAGGUA [TheoAS 27 #OpenEnded #MS2Late #AlternativeMS2]” to “GGUGGACUUUCGGCCGCCACUGAGAGAGUCGUGUGAACAUGAGGAUCACCCAUGUAAUAUAUAUACAGGACCGGGAGGGUUGUCC [4.O]”, the “apparent KD of MS2 coat protein” value falls from 135 nM to 28.7 nM (4.7-fold).

Compared with “AUAACCCUUGACUAAAACACUAAAUCAGUUCGAGGACCGGUACGGCCGCCACUCGUGUCAAGACAUGAGGAUCACCCAUGUACCU [Isbe]”, “ACCUACACGGAGACGUGUAGGAGUAAUGAUACCAGCAUGGAGACAUGCCCUUGGCAGCGUUACAUGAGGAUCACCCAUGUACGUU [ETHA #3]” is 3-fold lower in “apparent KD of MS2 coat protein” value: 45.4 nM for the first, 15.1 nM for the second.

“AGGACAUGAGGAUCACCCAUGUACACUGAAGGAGCGUCGAGAACGACAGGUAGGUCGCAGGCUAAGGAAGGUGAUGCUCAAGAAG [Exclusion Arginine A GF6]” and “UGUAUGGACUGAAGGAGCGGGUUGAUAAUCUGAGGAUCACCCAGGUAAAAGGCGAAAGCCACCCAGGUAGGUCGCAGUCCAUACU” are within 1.5-fold of each other in “apparent KD of MS2 coat protein” value: 40.9 nM for the first, 38.9 nM for the second.

Compared with “UAAUAAAUAAAUCCAAGGUGUAGGUCAGAUACCAGCCAGAUAACUGGCCCUUGGCAGCUGAAUAAACCUGAGGAACACCCAGGUA [TheoAS 24 #OpenEnded #MS2Late #AlternativeMS2]”, “GGAUAGGACACGGCCGCCACUAGCUAGGAUACUAGCAACAUUUGGGUACAUGAGGAUCACCCAUGUAGGACCGGGUGUCCUAUCG” is 2.4-fold higher in “apparent KD of MS2 coat protein” value: 49.5 nM for the first, 117 nM for the second.

Going from “GGAUAGGACACGGCCGCCACUAGCUAGGAUACUAGCAACAUUUCCUCACAAGAGGAUCACCCUUGUAGGACCGGGUGUCCUAUCG” to “GGCCCACAUGAGGAUCACCCAUGUGUGGAUACCAGCCUCAUUUAGGGCCCUUGGCAGCCAGAUAGUAACAAGUCCGAAACACAGA [theeternabot_sameState_MS2_Theo_A_24]”, the “apparent KD of MS2 coat protein” value rises from 115 nM to 203 nM (1.8-fold).

First: AUCGUACCUGAUGAUACCAGCAUGUGCUCGUAACAUGAGGAUCACCCAUGUGAUCAGUGAUGCCCUUGGCAGCAUGAUCGGUGCA [Same State - Theophylline B (Freestyle 18)]
Second: AUACAUGAGGAUCACCCAUGUUAUAGUGAAGGAGCGACAUUUAUGUCAGGUAGGUCGCACUGUUGUUUAAUGAUUCUUGGAUCUU [#20 Exclusion - Arginine A]
The “apparent KD of MS2 coat protein” value of the first is 7.1-fold higher: 134 nM for the first, 18.9 nM for the second.

First: UAAACUACACAUGAGGAUCACCCAUGUGGCCGAGGACCGGUACGGCCGCCACUCGUGUGUUAAUAAUAGAACUGCAAGGUUCUGU [Enindidiso]
Second: GGUAUGUAUUCGGAAACGAAUGCAUACCAACGAGGACCGGUACGGCCGCCACUCGGGCCGUGAUCACAUGAGGAUCACCCAUGUA [Ex Tryptophan A 5]
The “apparent KD of MS2 coat protein” value of the first is 4.6-fold higher: 228 nM for the first, 49.2 nM for the second.

Going from “AGCACUGUGACGGCCGCCACUACAUAUAGGGUGGUCAGGCCCAUAAUACAUGAGGAUCACCCAUGUAGGACCGGGUCUCAGUGCA [Omei Trp Exc B A v12]” to “GCACCAGGUACGGAUACCAGCUGCCAGCGUUACAUGAGGAUCACCCAUGUGAUCUGAUAUAGCCCUUGGCAGCUGUACCUGGUGC [SSThB NP+V+V2 #3 +-Same Structure]”, the “apparent KD of MS2 coat protein” value rises from 25.4 nM to 416 nM (16-fold).
